Measured values as given in article PMC5402964.

Biological target: α5β1 integrin (UniProt P08648)
Assay: SPR

Question: For “DisBa-01 (disintegrin of Bothrops alternatus), recombinant His-tag protein (natural protein; other documents disagree on this pair)”, which Kd is on record?
Answer: 76.2 µM
